# The RNAGym collection of RNA variant scans (doi:10.7554/elife.80360)
# B1: Hairpin Ribozyme (parent)
# chain: GUCCUCUUUCACGUGCGCGUGAAAGAGAGAAGUGAACCAGAGAAACACACGUUGUGGUAUAUUACCUGGUA
# Variants of: B1
# Test: self-cleavage, relative activity (ratio to wild type); higher = more cleavage; co-transcriptional
row,Variant,self-cleavage
1,GUCCUCUUUCACGUGCGCGUGAAAGAGAGAAGUGAGCCAGAGAAAAACACGUUGUGGUAUAUUACCUGGUA [A36G C46A],0.0586
2,GUCCUCUUUCACGUGCGCGUGAAAGAGAGAAGUGAGCCAGAGAAACACACGUUUUGGUAUAUUACCUGGUA [A36G G54U],0.816
3,GUCCUCUUUCACGUGCGCGUGAAAGAGAGAAGUGAGCCAGGGAAACACACGUUGUGGUAUAUUACCUGGUA [A36G A41G],0.536
4,GUCCUCUUUCACGUGCGCGUGAAAGAGAGAAGUGAGCCAGAGAAACACCCGUUGUGGUAUAUUACCUGGUA [A36G A49C],0.0302
5,GUCCUCUUUCACGUGCGCGUGAAAGAGAGAAGUGACCCAGAGAAACACACGUUGUGGUGUAUUACCUGGUA [A36C A59G],0.203
6,GUCCUCUUUCACGUGCGCGUGAAAGAGAGAAGUGACCCAGAGAAACACACGUUGUGCUAUAUUACCUGGUA [A36C G57C],0.17
7,GUCCUCUUUCACGUGCGCGUGAAAGAGAGAAGUGACCCAGAGAAACACACGUUGUGAUAUAUUACCUGGUA [A36C G57A],0.125
8,GUCCUCUUUCACGUGCGCGUGAAAGAGAGAAGUGUACCAGAGAAACACACGUUGUGGUAUAUUACCUAGUA [A35U G68A],0.29
9,GUCCUCUUUCACGUGCGCGUGAAAGAGAGAAGUGAGCCAGAGAAACUCACGUUGUGGUAUAUUACCUGGUA [A36G A47U],0.127
10,GUCCUCUUUCACGUGCGCGUGAAAGAGAGAAGUGAGCCAGAGAAACCCACGUUGUGGUAUAUUACCUGGUA [A36G A47C],0.372
11,GUCCUCUUUCACGUGCGCGUGAAAGAGAGAAGUGAGCCAGAGAAACACACGUUGUGGUUUAUUACCUGGUA [A36G A59U],0.0811
12,GUCCUCUUUCACGUGCGCGUGAAAGAGAGAAGUGAGCCAGAGAAACACACGUUGUGGUCUAUUACCUGGUA [A36G A59C],0.102
13,GUCCUCUUUCACGUGCGCGUGAAAGAGAGAAGUGAGCCAGAGAAACACACGUUGUGGUGUAUUACCUGGUA [A36G A59G],0.146
14,GUCCUCUUUCACGUGCGCGUGAAAGAGAGAAGUGACCCAGAGAAACACGCGUUGUGGUAUAUUACCUGGUA [A36C A49G],0.28
15,GUCCUCUUUCACGUGCGCGUGAAAGAGAGAAGUGACCCAGAGAAACACCCGUUGUGGUAUAUUACCUGGUA [A36C A49C],0.144
16,GUCCUCUUUCACGUGCGCGUGAAAGAGAGAAGUGAGCCAGAGAAACACACCUUGUGGUAUAUUACCUGGUA [A36G G51C],0.629
17,GUCCUCUUUCACGUGCGCGUGAAAGAGAGAAGUGAGCCAGAGAAACACAGGUUGUGGUAUAUUACCUGGUA [A36G C50G],0.382
18,GUCCUCUUUCACGUGCGCGUGAAAGAGAGAAGUGAGCCAGAGAAACACAUGUUGUGGUAUAUUACCUGGUA [A36G C50U],0.407
19,GUCCUCUUUCACGUGCGCGUGAAAGAGAGAAGUGUAGCAGAGAAACACACGUUGUGGUAUAUUACCUGGUA [A35U C37G],0.194

row,Variant,self-cleavage
1,GUCCUCUUUCACGUGCGCGUGAAAGAGAGAAGUGACCCAGAGAAACACACGUUGUGGUAUAUUACCUGAUA [A36C G69A],0.24
2,GUCCUCUUUCACGUGCGCGUGAAAGAGAGAAGUGACCCAGAGAAACACACGUUGUGGUAUAUUACCUGUUA [A36C G69U],0.227
3,GUCCUCUUUCACGUGCGCGUGAAAGAGAGAAGUGAGCCAGAGAAACACACGUUGUGGUAUCUUACCUGGUA [A36G A61C],0.328
4,GUCCUCUUUCACGUGCGCGUGAAAGAGAGAAGUGACCCAGAGAAACAGACGUUGUGGUAUAUUACCUGGUA [A36C C48G],0.118
5,GUCCUCUUUCACGUGCGCGUGAAAGAGAGAAGUGACCCAGAGAAACAAACGUUGUGGUAUAUUACCUGGUA [A36C C48A],0.142
6,GUCCUCUUUCACGUGCGCGUGAAAGAGAGAAGUGAGGCAGAGAAACACACGUUGUGGUAUAUUACCUGGUA [A36G C37G],0.287
7,GUCCUCUUUCACGUGCGCGUGAAAGAGAGAAGUGUACCAGAGAAACACACGUUGUGGUAUUUUACCUGGUA [A35U A61U],0.0854
8,GUCCUCUUUCACGUGCGCGUGAAAGAGAGAAGUGUACCAGAGAAACACACGUUGUGGUACAUUACCUGGUA [A35U U60C],0.559
9,GUCCUCUUUCACGUGCGCGUGAAAGAGAGAAGUGACCCAGAGAAACACACGUUGUGGUAUAUUAACUGGUA [A36C C65A],0.52
10,GUCCUCUUUCACGUGCGCGUGAAAGAGAGAAGUGACCCAGAGAAACACACGUUGUGGUAUAUUACUUGGUA [A36C C66U],0.264
11,GUCCUCUUUCACGUGCGCGUGAAAGAGAGAAGUGACCCAGAGAAACACACGCUGUGGUAUAUUACCUGGUA [A36C U52C],0.556
12,GUCCUCUUUCACGUGCGCGUGAAAGAGAGAAGUGACCCAGAGAAACACACGUUGUGGUAUAUUACCUGGGA [A36C U70G],0.671
13,GUCCUCUUUCACGUGCGCGUGAAAGAGAGAAGUGUACCAGAGAAACACACGGUGUGGUAUAUUACCUGGUA [A35U U52G],0.553
14,GUCCUCUUUCACGUGCGCGUGAAAGAGAGAAGUGUACCAGAGAAACACACGAUGUGGUAUAUUACCUGGUA [A35U U52A],0.715
15,GUCCUCUUUCACGUGCGCGUGAAAGAGAGAAGUGUACCAGAGAAACACACGCUGUGGUAUAUUACCUGGUA [A35U U52C],0.811
16,GUCCUCUUUCACGUGCGCGUGAAAGAGAGAAGUGACCCACAGAAACACACGUUGUGGUAUAUUACCUGGUA [A36C G40C],0.135
17,GUCCUCUUUCACGUGCGCGUGAAAGAGAGAAGUGACCCAUAGAAACACACGUUGUGGUAUAUUACCUGGUA [A36C G40U],0.122
18,GUCCUCUUUCACGUGCGCGUGAAAGAGAGAAGUGUACCAGAGAAACACACGUUGUGGUAUAUGACCUGGUA [A35U U63G],0.147
19,GUCCUCUUUCACGUGCGCGUGAAAGAGAGAAGUGUACCAGAGAAACACACGUUGUGGUAUAUAACCUGGUA [A35U U63A],0.227
